Here are results for 13 variants from PMC5663475, “SAV1 promotes Hippo kinase activation through antagonizing the PP2A phosphatase STRIPAK” (eLife, 2017).

The labels stand for the following.
B1: Myc-SAV1 SARAH (residues 321–383) wild type [modified: 35S-methionine labelled; 35S-methionine labelled] [human] / GST-MST2 SARAH (residues 430–491) [human] (parent complex)
chain 1: ILKWELFQLADLDTYQGMLKLLFMKELEQIVKMYEAYRQALLTELENRKQRQQWYAQQHGKNF
chain 2: KVPQDGDFDFLKNLSLEELQMRLKALDPMMEREIEELRQRYTAKRQPILDAMDAKKRRQQNF

In the experiment the parent is B1. Kind of experiment: GST pull-down of in vitro translated 35S-labeled Myc-SAV1 SARAH, quantified; read off a plot.
For the variant chain 1 E26A, the ratio to parent was about 0.02.
The value for chain 1 Y34A was about 0.36.
In the case of chain 1 T14A it was about 0.9; in that of chain 1 L41A, about 0.01.
In the case of chain 1 V31A it was about 0.53.
Regarding chain 1 Q16A, the ratio to parent was about 0.4.
In the case of chain 1 L27A it was about 0.7; in that of chain 1 Y37A, about 0.04.
In the case of chain 1 R48A it was about 0.03; in that of chain 1 R38A, about 0.03.
As for chain 1 L42A, the ratio to parent is about 0.2.
In the case of chain 1 L45A it was about 0.06; in that of chain 1 I30A, about 0.04.
